Reference: patent US20100143245A1

Molecular target: 4Ig-B7H3, the 4Ig domain isoform of the human B7-homolog 3 (human) (UniProt Q5ZPR3)
Test: Immunoaffinity capture from LAN-1 lysate or membrane fraction on 8H9-protein G Sepharose, followed by Western blot

UniProt Q5ZPR3, sequence (Q5ZPR3 29-534 limits assumed, form in doubt): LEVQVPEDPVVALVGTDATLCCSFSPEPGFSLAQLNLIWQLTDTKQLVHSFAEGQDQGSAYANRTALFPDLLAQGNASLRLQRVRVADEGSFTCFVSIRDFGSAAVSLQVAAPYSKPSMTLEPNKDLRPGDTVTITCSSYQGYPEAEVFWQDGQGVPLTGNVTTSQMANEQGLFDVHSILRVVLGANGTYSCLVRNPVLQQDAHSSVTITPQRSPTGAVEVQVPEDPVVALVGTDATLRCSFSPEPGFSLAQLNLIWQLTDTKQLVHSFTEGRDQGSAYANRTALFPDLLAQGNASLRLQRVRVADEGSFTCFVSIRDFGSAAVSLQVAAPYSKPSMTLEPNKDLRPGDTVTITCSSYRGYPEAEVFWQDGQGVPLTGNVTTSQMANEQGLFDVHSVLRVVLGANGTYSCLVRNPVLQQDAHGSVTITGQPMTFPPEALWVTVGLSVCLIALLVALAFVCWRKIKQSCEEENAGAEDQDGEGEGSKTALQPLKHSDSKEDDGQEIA

- portion of 8H9 antigen bound to the Sepharose: > 50%
Substance: monoclonal antibody 8H9
